Measurements as given in publication PMC12527946, “Structural analyses define the molecular basis of clusterin chaperone function” (Nature Structural & Molecular Biology, 2025).

B1: denatured bovine rhodanese (D-Rho) (enzyme, UniProt P00586 1-297, looked up)
chain: MVHQVLYRALVSTKWLAESVRAGKVGPGLRVLDASWYSPGTREARKEYLERHVPGASFFDIEECRDKASPYEVMLPSEAGFADYVGSLGISNDTHVVVYDGDDLGSFYAPRVWWMFRVFGHRTVSVLNGGFRNWLKEGHPVTSEPSRPEPAIFKATLNRSLLKTYEQVLENLESKRFQLVDSRAQGRYLGTQPEPDAVGLDSGHIRGSVNMPFMNFLTEDGFEKSPEELRAMFEAKKVDLTKPLIATCRKGVTACHIALAAYLCGKPDVAIYDGSWFEWFHRAPPETWVSQGKGGKA
notes: rhodanese (33 kDa), bovine; Denatured in 6 M guanidinium–HCl and 5 mM DTT and diluted 120-fold into buffer; non-native, forms oligomers and aggregates
B2: receptor-associated protein (RAP) (natural protein, UniProt P30533 36-357, looked up)
chain: SREKNQPKPSPKRESGEEFRMEKLNQLWEKAQRLHLPPVRLAELHADLKIQERDELAWKKLKLDGLDEDGEKEARLIRNLNVILAKYGLDGKKDARQVTSNSLSGTQEDGLDDPRLEKLWHKAKTSGKFSGEELDKLWREFLHHKEKVHEYNVLLETLSRTEEIHENVISPSDLSDIKGSVLHSRHTELKEKLRSINQGLDRLRRVSHQGYSTEAEFEEPRVIDLWDLAQSANLTDKELEAFREELKHFEAKIEKHNHYQKQLEIAHEKLRHAESVGDGERVSRSREKHALLEGRTKELGYTVKKHLQDLSGRISRARHNEL
notes: LRPAP1 from plasmid pQTEV-LRPAP1; the signal peptide (amino acids 1–35) was removed; Purification is told in the Supplementary Information; also called LRPAP1; low density lipoprotein receptor-related protein-associated protein 1
B3: wild-type human clusterin (WT Clu) (natural protein)
chain 1: DQTVSDNELQEMSNQGSKYVNKEIQNAVNGVKQIKTLIEKTNEERKTLLSNLEEAKKKKEDALNETRESETKLKELPGVCNETMMALWEECKPCLKQTCMKFYARVCRSGSGLVGRQLEEFLNQSSPFYFWMNGDRIDSLLENDRQQTHMLDVMQDHFSRASSIIDELFQDRFFTREPQDTYHYLPFSLPHRRPHFFFPKSRIVR
chain 2: SLMPFSPYEPLNFHAMFQPFLEMIHEAQQAMDIHFHSPAFQHPPTEFIREGDDDRTVCREIRHNSTGCLRMKDQCDKCREILSVDCSTNNPSQAKLRRELDESLQVAERLTRKYNELLKSYQWKMLNTSSLLEQLNEQFNWVSRLANLTQGEDQYYLRVTTVASHTSDSDVPSGVTEVVVKLFDSDPITVTVPVEVSRKNPKFMETVAEKALQEYRKKHREE
modifications: N-glycans (six in the whole protein); five disulfide bonds to the α-chain | N-glycans (six in the whole protein); five disulfide bonds to the β-chain
notes: clusterin β-chain, human, residues 23–227 of the precursor; clusterin α-chain, human, residues 228–449 of the precursor; Almost completely processed by furin into β- and α-chain, which stay disulfide-linked; In the flotation assay it stood in DMPC nanodiscs (Clu–DMPC); also called apolipoprotein J; ApoJ

Columns and labels:
[1] = molecular target: B3; assay: SEC; D-Rho diluted into PBS to 0.5 μM with 1.5 μM WT Clu, 30 min at 25 °C; soluble fraction on Superose-6, fractions by SDS-PAGE and immunoblotting against Rho and Clu; settings: both partners purified
[2] = molecular target: VLDLR(28–797)Δ(751–779)-C-tag (VLDLR ectodomain) (human, UniProt P98155-2 28-797, Δ(751–779), Secreted from HEK293E, glycosylated, Ca2+-bound LDLR repeats, disulfides; C-terminal C-tag left out. Deletion 751-779 taken as printed, in the numbering of the long isoform); assay: ELISA; plate coated with 10 µg/ml VLDLR-ed; Clu or RAP in TBS-C pH 7.4, 2 mM CaCl2, 2% BSA, 0.05% Tween-20, 1 h at room temperature; background binding to BSA subtracted; one-site specific binding fit; settings: both partners purified
[3] = molecular target: the molecule itself; assay: SEC; 10 μM Clu in 20 mM MES-NaOH pH 6.5, HEPES-NaOH pH 7.5 or Tris-HCl pH 8.5, 100 mM NaCl, 1 mM EDTA, overnight or longer on ice; Superdex-200 Increase 3.2/300 at room temperature; monomers and dimers
[4] = molecular target: VLDLR(28–797)Δ(751–779)-C-tag (VLDLR ectodomain) (human, UniProt P98155-2 28-797, Δ(751–779)); assay: ELISA; plate coated with 10 µg/ml VLDLR-ed; Clu or RAP in TBS-C pH 7.4, 2 mM CaCl2, 2% BSA, 0.05% Tween-20, 1 h at room temperature; background binding to BSA subtracted; one-site specific binding fit; settings: both partners purified

## B1
[1]
  binding result: binds

## B2
[2]
  Kd: ~1.2 nM

## B3
[3]
  stoichiometry N: 2
[4]
  Kd: ~80 nM
